{
  "source": "paper PMC9330073",
  "about": "“Cargo Recognition Mechanisms of Yeast Myo2 Revealed by AlphaFold2-Powered Protein Complex Prediction” (Biomolecules, 2022)",
  "binders": {"B1": {"name": "GST-Pea2-CC1 (GST-tagged Pea2-CC1; dimer) (domain or fragment)", "chain": "AIQEEDSSKKLEELETAFSDLQLAHNFLTKQFENDRAEYVQDIEKLTRTNRELQDKLLNNHSNLSKTEKKLHELEQENKELEKANNKLNSSRH", "modifications": "N-terminal GST (pGEX-4T-1) left out; GST drives the dimerization"}, "B2": {"name": "Vac17-MIS (Myo2-interacting sequence of Vac17) (domain or fragment, Saccharomyces cerevisiae (strain S288c), UniProt P25591 112-157, looked up)", "chain": "PNEAPNDSPQSQSTRSSLGSFQPRPLKIIERQRLCMVTPSKPPKKS", "notes": "Vac17 (vacuole-related protein 17), S. cerevisiae, region containing residues 112-157 (MIS); Named Trx-tagged in the light scattering; also called Trx-Vas17-MIS; Vac17-MIS wild-type; source: E. coli BL21(DE3), purified (Ni2+-NTA, size exclusion chromatography); not shown: Trx, N-terminal, kept"}, "B3": {"name": "Pea2-CC1 (Trx-tagged; monomer) (domain or fragment, Saccharomyces cerevisiae (strain S288c), UniProt P40091 235-327, looked up)", "chain": "B1 chain", "notes": "Pea2 (polarisome subunit), S. cerevisiae, conserved coiled coil CC1 containing residues 235-327; Named Trx-tagged in the light scattering; also called Trx-tagged Pea2-CC1; Pea2-CC1 monomer; source: E. coli BL21(DE3), purified (Ni2+-NTA, size exclusion chromatography); not shown: Trx, N-terminal, kept"}},
  "key": {"[1]": {"target": "T1, Myo2-GTD (globular tail domain of Myo2) (Saccharomyces cerevisiae (strain S288c), UniProt P19524 1152-1574)", "T1 chain": "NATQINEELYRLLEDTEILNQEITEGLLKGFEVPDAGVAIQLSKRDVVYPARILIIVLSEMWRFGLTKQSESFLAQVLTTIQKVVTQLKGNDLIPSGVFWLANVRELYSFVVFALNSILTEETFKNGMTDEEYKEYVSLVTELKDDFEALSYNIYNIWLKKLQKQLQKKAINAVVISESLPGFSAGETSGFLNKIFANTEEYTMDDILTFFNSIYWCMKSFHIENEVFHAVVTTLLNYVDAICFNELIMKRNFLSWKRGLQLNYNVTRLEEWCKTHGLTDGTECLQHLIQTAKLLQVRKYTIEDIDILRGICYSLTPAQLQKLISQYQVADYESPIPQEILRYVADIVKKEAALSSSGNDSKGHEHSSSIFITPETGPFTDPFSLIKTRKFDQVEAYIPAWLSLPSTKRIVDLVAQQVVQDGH", "assay": "ITC"}, "Myo2-GTD Y1303A": {"target": "T2, Myo2-GTD Y1303A (Saccharomyces cerevisiae)", "T2 chain": "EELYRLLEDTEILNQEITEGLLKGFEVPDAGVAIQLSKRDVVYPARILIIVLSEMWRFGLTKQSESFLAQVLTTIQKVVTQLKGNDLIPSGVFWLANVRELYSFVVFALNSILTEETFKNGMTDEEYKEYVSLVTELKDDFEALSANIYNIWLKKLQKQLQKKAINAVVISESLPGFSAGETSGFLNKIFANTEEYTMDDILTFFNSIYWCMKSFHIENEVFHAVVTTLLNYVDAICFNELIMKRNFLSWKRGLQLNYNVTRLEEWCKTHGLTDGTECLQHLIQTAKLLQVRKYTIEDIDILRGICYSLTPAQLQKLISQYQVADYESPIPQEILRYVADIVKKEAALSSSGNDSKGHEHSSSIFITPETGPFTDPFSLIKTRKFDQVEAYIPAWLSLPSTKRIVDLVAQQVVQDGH", "assay": "ITC"}, "Myo2-GTD D1297N": {"target": "T3, Myo2-GTD D1297N (Saccharomyces cerevisiae)", "T3 chain": "T2 chain with D140N, A146Y", "assay": "ITC"}, "Myo2-GTD L1331S": {"target": "T4, Myo2-GTD L1331S (Saccharomyces cerevisiae (strain S288c))", "T4 chain": "T2 chain with A146Y, L174S", "assay": "ITC"}, "Myo2-GTD W1407A": {"target": "T5, Myo2-GTD W1407A (Saccharomyces cerevisiae (strain S288c))", "T5 chain": "T2 chain with A146Y, W250A", "assay": "ITC"}, "[2]": {"target": "T6, Myo2-GTD (globular tail domain of Myo2) (Saccharomyces cerevisiae (strain S288c), UniProt P19524 1152-1574)", "T6 construct": "Myo2 (class V myosin), S. cerevisiae, C-terminal globular tail domain (GTD); Named Trx-Myo2-GTD in the light scattering experiment; also called Trx-Myo2-GTD; source: E. coli BL21(DE3), purified (Ni2+-NTA, size exclusion chromatography); not shown: Trx, N-terminal, kept", "T6 sequence (looked up)": "T1 chain", "assay": "ITC; 200 μM Vac17-MIS in the syringe titrated into 20 μM Myo2-GTD in the cell, 25 °C; one-site binding model", "conditions": "both partners purified"}, "[3]": {"target": "T6, Myo2-GTD (globular tail domain of Myo2)", "assay": "ITC; 500 μM Myo2-GTD in the syringe titrated into 50 μM Kar9-MIS or Pea2-MIS in the cell, 25 °C; one-site binding model", "conditions": "both partners purified"}},
  "note": "Positions count from the first letter of the chain named.",
  "data": [
    {"binder": "B1", "values": [
      {"measurement": "Kd", "setting": "[1]", "result": 11, "unit": "µM"},
      {"measurement": "Kd", "setting": "Myo2-GTD Y1303A", "result": 11, "unit": "µM"},
      {"measurement": "Kd", "setting": "Myo2-GTD D1297N", "result": 10, "unit": "µM"}
    ]},
    {"binder": "B2", "values": [
      {"measurement": "Kd", "setting": "Myo2-GTD L1331S", "result": 0.41, "unit": "µM"},
      {"measurement": "Kd", "setting": "Myo2-GTD W1407A", "result": 0.45, "unit": "µM"},
      {"measurement": "Kd", "setting": "[2]", "result": "~0.3", "unit": "µM"}
    ]},
    {"binder": "B3", "values": [
      {"measurement": "Kd", "setting": "[3]", "result": "~50", "unit": "µM"}
    ]}
  ]
}
